Laboratory results from PMC12133298.
pKd: −log10 of the molar value.

Tested on: Rho Y80C (Escherichia coli)
Assay: EMSA
Details: 37 C, 1 mM ATP, 25 mM Tris-Cl pH 8.0, 50 mM KCl, 5 mM MgCl2, 1 mM DTT, 37 C (or 4 C), 15 min, 0.8% agarose 0.5x TBE, 5 nM DNA

Substance: 3.5 kb linear dsDNA
- pKd (5 mM Mg2+): 6.74

Substance: pBR322
- binding signal (fold weaker than WT): 7
